In publication PMC4927282:

Biological target: caveolin-1 (Cav1) (UniProt Q03135)
Assay: acceptor-photobleaching FRET, CFP/YFP pairs
Conditions: reference: Y14F-CFP/Y14F-YFP pair; sites Y14

Sequence of UniProt Q03135 (Q03135 whole entry, stated change not applied): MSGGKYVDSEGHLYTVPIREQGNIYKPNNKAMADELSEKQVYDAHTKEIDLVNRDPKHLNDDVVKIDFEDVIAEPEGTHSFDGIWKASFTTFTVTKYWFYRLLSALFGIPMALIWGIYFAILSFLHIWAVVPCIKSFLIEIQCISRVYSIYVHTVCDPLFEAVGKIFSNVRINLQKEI

other: FRET efficiency: weaker; reference 0.90 ± 0.13
Substance: caveolin-1 (Cav1) (from UniProt Q03135) Y14D-CFP/Y14D-YFP pair
